Key:
[1] = molecular target: T1, recombinant active heparanase (Homo sapiens, UniProt Q9Y251, DEL111-157/INS109GSGSG); assay: Heparanase enzymatic activity on 35S-labelled ECM, enzyme pre-incubated with antibody; assay type: biochemical; details: antibody 2 μg/ml, heparanase 200 ng, pre-incubated 2 h on ice
T1 sequence (Q9Y251 with tags, fused parts or gaps INS109GSGSG/DEL111-157): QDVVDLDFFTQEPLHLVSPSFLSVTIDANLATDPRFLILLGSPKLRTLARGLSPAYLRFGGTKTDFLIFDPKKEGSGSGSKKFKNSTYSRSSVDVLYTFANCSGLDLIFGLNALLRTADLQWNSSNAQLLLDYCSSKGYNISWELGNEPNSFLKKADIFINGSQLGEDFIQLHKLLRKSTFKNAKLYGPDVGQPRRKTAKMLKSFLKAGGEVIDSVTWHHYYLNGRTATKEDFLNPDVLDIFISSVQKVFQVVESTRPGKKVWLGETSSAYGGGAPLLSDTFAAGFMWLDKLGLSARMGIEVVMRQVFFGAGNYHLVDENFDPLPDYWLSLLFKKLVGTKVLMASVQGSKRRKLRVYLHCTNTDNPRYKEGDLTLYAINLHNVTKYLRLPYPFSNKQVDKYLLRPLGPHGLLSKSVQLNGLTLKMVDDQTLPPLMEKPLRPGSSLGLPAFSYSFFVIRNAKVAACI
Procedure: Cell lysates, heparanase activity and protein blotting. Preparation of cell lysates, protein blotting, and measurement of heparanase enzymatic activity were carried out as described (Vlodaysky I, et al. 1999, Nature Med 5(7):793-802; Arvatz et at, 2011, FASEB J 24(12):4969-4976). […] Likewise, cell lysates or tumor extracts were incubated (12 h, 37° C., pH 6.0) with the labeled ECM and sulfate labeled degradation fragments released into the incubation medium were analyzed by gel filtration on a Sepharose CL-6B column. Degradation fragments of HS side chains are eluted from Sepharose 6B at 0.5<Kav<0.8 (peak II, fractions 17-30). Nearly intact sulfate labeled HSPGs are eluted just after the void volume (Kav<0.2, peak I, fractions 1-10). […]
FIG. 2A. […] The mixture was then applied onto dishes coated with ^35S-labeled ECM and heparanase enzymatic activity was determined as described under “Materials and Methods”. […] Blood vessels density was quantified by counting the number of CD31-positive vessels per field and is presented graphically at the right second panel. At least 25 fields of each treatment were counted. […]
FIG. 3A. […] The mixture was then applied onto ^35S-labeled ECM-coated dishes and heparanase activity was determined as described above (lower panel). […] Quantification of the extent of CD45 staining is shown graphically in the lower panel. […]

lymphoma cells = assay: Lymphoma cell death, propidium iodide FACS; assay type: cell-based; details: 50 μg/ml, 24 h
Procedure: FIG. 6A. CAG myeloma. NOD/SCID mice (n=5) were inoculated (iv) with CAG-luciferase cells (5×10^6) and mice were treated with mAb 9E8 (600 μg/mouse every other day). Tumor growth was evaluated by IVIS imaging (left panels). Quantification of luciferase signals is shown graphically in the right panel. Note 2-3 fold decrease in tumor growth by the heparanase-neutralizing mAbs. FIG. 6B. Bone marrow was harvested from C57Bl/6 mice, cells were collected by centrifugation and heparanase activity was determined as described under ‘Materials and Methods’ (left panel). Corresponding bones were fixed in formalin and following de-calcification were subjected to immunostaining applying anti-heparanase antibody (right panel). FIG. 6C. The indicated cell line (0.25×10^6) was treated with antibodies 1453or 9E8 (50 μg/ml) for 24 h. Cells were then washed once with FACS buffer (PBS containing 2% FCS), incubated with Propidium Iodide (PI; 1 μg/ml) for 10 min and analyzed using FACS Cyan ADP system (Beckman Coulter, Inc). PI-positivity indicates a disturbed membrane and cell death.

B1: mAb 9E8: monoclonal IgM raised against KKDC peptide (Lys158-Asn171) of heparanase; VH SEQ ID NO: 7, VL SEQ ID NO: 8 (antibody)
VH: EVKLLESGGGLVQPGGSLKLSCAASGFDFSRYWMSWVRQAPGKGLEWIGEINPDSSTINYTPSLKDKFIISRDNAKNTLYLQMSKVRSEDTALYYCARRGYEGNYAMDYWGQGTSVTVSSESQSFPNVFPLVSCESPLSDKNLVAMGCLAR
VL: DIVMTQAAPSVPVTPGESVSISCRSSKSLLHSNGNTYLYWFLQRPGQSPQLLIYRMSNLASGVPDRFSGSGSGTAFTLRISRVEAEDVGVYYCMQHLEYPFTFGSGTKLEIKRADAAPTVSIFPPSSEQLTSGGASVVCFL
modifications: IgM constant regions
neutralization of heparanase enzymatic activity [1]: neutralizes heparanase enzymatic activity to magnitude comparable with the polyclonal antibody #1453
lymphoma cell death (PI-positivity) (lymphoma cells): do not elicit lymphoma cell death

From patent publication US11161912B2, “Heparanase-neutralizing monoclonal antibodies” (Technion Research & Development Foundation Limited, priority 2015, dated 2021)
